Holding throughout (conditions): EMSA: 50 mM Tris-HCl pH 7.5, 100 mM KCl, 10 mM MgCl2, room temperature, SPR: same buffer, 25 C, Tb footprinting: 50 mM Tris-HCl pH 8.0, 100 mM NaCl
For data set [1], the target named is T1, Hfq wild type (Escherichia coli?) (UniProt P0A6X3). As to the kind of experiment: EMSA.
Data set [2] addresses T1, Hfq wild type. The data set can be described thus: Tb(III) footprinting.
For data set [3], the target named is T1, Hfq wild type. As to the kind of experiment: SPR. Background: In SPR one partner is held on a chip, and binding of the other changes the refractive index at the surface.

These results are taken from article PMC2946933.

Where “and” joins values, the source holds several entries; their conditions need not be identical. Identical values can stand only once.

T1 sequence (P0A6X3 whole entry): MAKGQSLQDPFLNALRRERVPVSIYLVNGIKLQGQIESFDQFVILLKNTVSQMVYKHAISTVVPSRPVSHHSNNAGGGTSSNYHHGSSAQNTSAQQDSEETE

What is called Kd is the equilibrium constant for the complex coming apart. Low values mean tighter binding, high ones weaker binding. Consider fhlA220 mRNA, for which the Kd in data set [1] (Hfq hexamer, 10 mM Mg2+) is 15 nM.
On to OxyS sRNA with fhlA220 mRNA, for which the Kd in data set [1] amounted to 23 nM.
For “GGCAGUUAGUCAAUGACCUUUUGCACCGCUUUGCGGUGCUUUCCUGGAAGAACAAAAUGUCAUAUACACCGAUGAGUGAUCUCGGACAACAAGGGUUGUUCGACAUCACUCGGACAACAAAUAUUGGAUCCAGCUCG [fhlA53 mRNA]”, in data set [2], the binding result is reported as “binds”. The Kd was 70 nM in data set [1]; 43 nM and 50 nM in data set [3].
“GCAGCGUUACAUUCCCAUCCACUGGGGAAAGACGCGGCGCUGAUUGGUGAAGUGGUGGAACGUAAAGGUGUUCGUCUUGCCGGUCUGUAUGGCGUGAAACGAACCCUCGAUUUACCACACGCCGAACCGCUUCCGCGUAUAUGCUAAUAAAAUUCUAAAUCUCCUAUAGUUAGUCAAUGACCUUUUGCACCGCUUUGCGGUGCUUUCCUGGAAGAACAAAAUGUCAUAUACACCGAUGAGUGAUCUCGGACAACAAGGGUUGUUCGACAUCACUCGGACAAAUAUUGGAUCCGCUCGG [fhlA220 mRNA]”: the Kd in data set [1] was determined as 15 nM.
With fhlA53 mRNA, the dissociation constant Kd in data set [1] (10 mM Mg2+) was 70 nM; in data set [3], 43 nM and 50 nM and 5 nM.
